Assay results from paper PMC6727212 (ACS Chemical Neuroscience, 2019).
Several values for one entry are separate records, joined by “and”; a condition that tells them apart may be missing. Equal values may be shown once.

B1: recombinant human stefin B wild-type (C3S) (natural protein, UniProt P04080 1-98, looked up)
chain: MMSGAPSATQPATAETQHIADQVRSQLEEKENKKFPVFKAVSFKSQVVAGTNYFIKVHVGDEDFVHLRVFQSLPHENKPLTLSNYQTNKAKHDELTYF
B2: human stefin B P79S (natural protein, UniProt P04080 1-98, looked up)
chain: MMSGAPSATQPATAETQHIADQVRSQLEEKENKKFPVFKAVSFKSQVVAGTNYFIKVHVGDEDFVHLRVFQSLPHENKSLTLSNYQTNKAKHDELTYF
B3: human stefin B P36D (natural protein, UniProt P04080 1-98, looked up)
chain: MMSGAPSATQPATAETQHIADQVRSQLEEKENKKFDVFKAVSFKSQVVAGTNYFIKVHVGDEDFVHLRVFQSLPHENKPLTLSNYQTNKAKHDELTYF
B4: human stefin B P11S P74S (natural protein, UniProt P04080 1-98, looked up)
chain: MMSGAPSATQSATAETQHIADQVRSQLEEKENKKFPVFKAVSFKSQVVAGTNYFIKVHVGDEDFVHLRVFQSLSHENKPLTLSNYQTNKAKHDELTYF
B5: human stefin B P6L P74S (natural protein, UniProt P04080 1-98, looked up)
chain: MMSGALSATQPATAETQHIADQVRSQLEEKENKKFPVFKAVSFKSQVVAGTNYFIKVHVGDEDFVHLRVFQSLSHENKPLTLSNYQTNKAKHDELTYF
B6: human stefin B P6L (natural protein, UniProt P04080 1-98, looked up)
chain: MMSGALSATQPATAETQHIADQVRSQLEEKENKKFPVFKAVSFKSQVVAGTNYFIKVHVGDEDFVHLRVFQSLPHENKPLTLSNYQTNKAKHDELTYF
B7: human stefin B P11S (natural protein, UniProt P04080 1-98, looked up)
chain: MMSGAPSATQSATAETQHIADQVRSQLEEKENKKFPVFKAVSFKSQVVAGTNYFIKVHVGDEDFVHLRVFQSLPHENKPLTLSNYQTNKAKHDELTYF
B8: human stefin B P74S P79S (natural protein, UniProt P04080 1-98, looked up)
chain: MMSGAPSATQPATAETQHIADQVRSQLEEKENKKFPVFKAVSFKSQVVAGTNYFIKVHVGDEDFVHLRVFQSLSHENKSLTLSNYQTNKAKHDELTYF
B9: human stefin B P74S (natural protein, UniProt P04080 1-98, looked up)
chain: MMSGAPSATQPATAETQHIADQVRSQLEEKENKKFPVFKAVSFKSQVVAGTNYFIKVHVGDEDFVHLRVFQSLSHENKPLTLSNYQTNKAKHDELTYF

Target: the molecule itself
Test: SEC; Superdex 75 (10 x 300 mm) on FPLC, room temperature, 0.5 mL/min, 500 uL of about 1 mg/mL protein; 10 mM phosphate, 0.15 M NaCl, pH 7.5 (legend and results; the methods say pH 7.0); equilibrium oligomeric state, stB wt as standard
With B1 the “stoichiometry N” value was 2.
With B2 the “stoichiometry N” value was 2 and 4.
B3: binds.
B4 was tested, and the “stoichiometry N” value was 2.
In the case of B5, the “stoichiometry N” value is reported as 2.
B6: binds.
B7: binds.
For B8, the “stoichiometry N” value was 2.

Target: the molecule itself
Test: as above
Remark: another data set of the same source
B9: binds.
